# Measurements from patent US7122633 (Pfizer, dated 2006).
# T1: NKSF larger subunit, 40 kD (human, UniProt P29460 23-328)
# T1 construct: also called 40 kD subunit; NKSF heavy chain
# T1 sequence: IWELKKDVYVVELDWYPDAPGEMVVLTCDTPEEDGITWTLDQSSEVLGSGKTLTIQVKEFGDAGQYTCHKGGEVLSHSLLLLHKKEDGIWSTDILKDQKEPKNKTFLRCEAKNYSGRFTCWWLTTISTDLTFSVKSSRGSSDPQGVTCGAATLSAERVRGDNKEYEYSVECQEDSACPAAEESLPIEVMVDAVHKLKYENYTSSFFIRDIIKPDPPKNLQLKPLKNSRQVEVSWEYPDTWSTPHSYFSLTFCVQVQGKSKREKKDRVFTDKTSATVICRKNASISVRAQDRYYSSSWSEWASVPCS
# B1: NKSF smaller subunit, 30-35 kD (other)
# chain: RNLPVATPDPGMFPCLHHSQNLLRAVSNMLQKARQTLEFYPCTSEEIDHEDITKDKTSTVEACLPLELTKNESCLNSRETSFITNGSCLASRKTSFMMALCLSSIYEDLKMYQVEFKTMNAKLLMDPKRQIFLDQNMLAVIDELMQALNFNSETVPQKSSLEEPDFYKTKIKLCILLHAFRIRAVTIDRVMSYLNAS
# notes: also called 30 kD subunit; 30 kD (smaller version)
# Molecular target: T1, NKSF larger subunit, 40 kD
# Test: SDS-PAGE of the iodinated 70 kD species, non-reduced against reduced with β-mercaptoethanol
# Description: SDS-PAGE was performed according to the method of Laemmli [Laemmli, U. K., *Nature*, 227:680–685 (1970)] on 10% acrylamide slab gels (0.75 mm thickness). After electrophoresis the gels were either stained by the silver-nitrate method using a silver staining reagents [BioRad] or cut into 2 mm slices and eluted in 0.5 ml RPMI medium for 4 hours at 24° C. and assayed for NKSF activity. Apparent molecular weight was determined with protein standards, […] (94 kD), bovine serum albumin (67 kD), ovalbumin (43 kD), carbonic anhydrase (30 kD), soybean trypsin inhibitor (20 kD) and lactalbumin (14.4 kD).
# The 70 kD species was eluted from the gel, iodinated using chloramine T [Sigma, St. Louis, Mo.] and rerun on a second SDS gel after boiling for two minutes in the presence of the reducing agent, β-mercaptoethanol (10%). […] Alternatively, NKSF may be a dimer formed by multiples of the larger or smaller subunits. The reduction of the native 70 kD NKSF appeared to destroy all of its ability to induce peripheral blood lymphocyte production of gamma interferon.
binder,measurement,value
B1,binding result,binds
